Consider two molecules from PMC4881018, “Sec15 links bud site selection to polarised cell growth and exocytosis in Candida albicans” (Scientific Reports, 2016).

What all share (assay): pull-down; GST fusion protein immobilised on glutathione-Sepharose beads (20 μl), incubated with 20 μg of purified His-tagged protein in 200 μl binding buffer (1× PBS, 1 mg/ml ovalbumin, 10 mM β-mercaptoethanol, 0.1% IGPAL-30), 1 hour at room temperature; four washes; anti-His blot
Common to all, as to details: both partners purified

Assay [1] concerns the target T1, GST-Sec15^550–892 (C. albicans, UniProt A0A1D8PM29 550-892).
T1 construct: The methods say only that similar strategies as for Sec15 and Rsr1 were used; source: E. coli, purified
T1 sequence (looked up): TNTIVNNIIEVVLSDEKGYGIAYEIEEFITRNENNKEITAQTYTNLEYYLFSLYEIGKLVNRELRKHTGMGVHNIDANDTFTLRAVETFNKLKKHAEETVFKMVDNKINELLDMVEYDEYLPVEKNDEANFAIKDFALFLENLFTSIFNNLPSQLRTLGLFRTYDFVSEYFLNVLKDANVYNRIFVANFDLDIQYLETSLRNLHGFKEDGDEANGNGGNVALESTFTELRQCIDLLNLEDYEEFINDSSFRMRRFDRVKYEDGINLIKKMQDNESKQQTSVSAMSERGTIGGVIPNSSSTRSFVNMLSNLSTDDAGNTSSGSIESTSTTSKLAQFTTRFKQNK

Assay [2] has as its target T2, His-Sec15^1–549 (C. albicans, UniProt A0A1D8PM29 1-549).
T2 construct: Sec15, exocyst component of Candida albicans, amino acids 1 to 549; Subcloned into pET21-a (Novagen); also called His6-Sec15^1–549; source: E. coli, purified
T2 sequence (looked up): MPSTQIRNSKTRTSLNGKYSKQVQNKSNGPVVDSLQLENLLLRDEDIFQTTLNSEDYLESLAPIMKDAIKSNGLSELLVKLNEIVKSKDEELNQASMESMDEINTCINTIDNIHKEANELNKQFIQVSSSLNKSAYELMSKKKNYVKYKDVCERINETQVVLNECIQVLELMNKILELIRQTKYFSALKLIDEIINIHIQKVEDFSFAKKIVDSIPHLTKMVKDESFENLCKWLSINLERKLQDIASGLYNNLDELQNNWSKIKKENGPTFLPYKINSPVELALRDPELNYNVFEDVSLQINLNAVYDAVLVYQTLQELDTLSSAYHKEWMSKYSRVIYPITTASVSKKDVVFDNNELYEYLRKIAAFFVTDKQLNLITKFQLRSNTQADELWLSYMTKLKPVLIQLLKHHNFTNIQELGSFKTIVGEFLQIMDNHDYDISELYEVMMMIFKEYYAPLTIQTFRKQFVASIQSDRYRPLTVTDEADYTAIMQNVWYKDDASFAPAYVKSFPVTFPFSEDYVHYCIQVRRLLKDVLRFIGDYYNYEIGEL

The target in assay [3] is T3, His-Sec15^1–300 (C. albicans, UniProt A0A1D8PM29 1-300).
T3 construct: Sec15, exocyst component of Candida albicans, amino acids 1 to 300; Subcloned into pET21-a (Novagen); also called His6-Sec15^1–300; source: E. coli, purified
T3 sequence (looked up): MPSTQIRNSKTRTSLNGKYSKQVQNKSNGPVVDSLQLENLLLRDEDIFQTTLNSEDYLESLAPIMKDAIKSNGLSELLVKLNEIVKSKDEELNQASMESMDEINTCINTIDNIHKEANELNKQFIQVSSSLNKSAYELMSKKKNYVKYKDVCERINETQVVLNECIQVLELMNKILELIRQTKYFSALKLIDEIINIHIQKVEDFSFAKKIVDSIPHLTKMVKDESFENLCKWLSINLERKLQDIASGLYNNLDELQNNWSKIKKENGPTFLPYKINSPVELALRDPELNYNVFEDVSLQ

B1: His-Bem1^1–300 (domain or fragment, C. albicans, UniProt A0A1D8PLB6 1-300, looked up)
chain: MIKTFRKSKRSSSNSSSPKKTISRVSSTSSNQTSHDGILQSPKKVIRALYDYEPQGPGELKFFKGDFFHVLDDVDDELHKEAEANGWIEATNPMTQLKGMVPISYFEIFDRSRPTVTASSNSFTNSIDIQHQHQHQQGIHNGTGNRNLNQTLYAVTLYEFKAERDDELDIMPNENLIICAHHDYEWFIAKPINRLGGPGLVPVSYVKIIDLLNPNSHYTSIDTSRRSQVIQVINGFNIPTVEQWKNQTAKYQASTIPLGSISGSGTPPTSANSQYFDNHTMTSNRSSSGSSISIVEASVD
notes: Bem1, polarity determinant of Candida albicans, N-terminal 300 amino acids; also called His6-Bem1^1–300; N-terminal 300 amino acids of Bem1; source: similar strategies as for the E. coli proteins
With B1, the binding result in assay [1] is “binds”.

B2: GST-Rsr1^K16N (GDP-locked form of Rsr1) (natural protein)
chain: MRDYKVVVLGAGGVGNSSITVQFVQGVYVESYDPTIEDSYRKQIEVDGRACDLEILDTAGVAQFTAMRELYIKSGKGFLLVYSVTDENSLKELLALREQVLRIKDSDNVPMVLVGNKCDLEDDRVLSIEDGVKVSQDWGLVPFYETSAMYKTNVDEAFIDVVRQIMRKEAAISAEKKQQKELQKQQQQQQQEQDAEGQQQQQKSGKSKSSATQKDATADGQTDVNARLKQSINDHPKSSSGSKFCTII
notes: Rsr1, Ras-family GTPase of Candida albicans; GDP-locked mutant K16N; Made with the pGEX vector system (Amersham Biosciences), which normally places GST at the N-terminus; also called Rsr1-GDP; recombinant Rsr1^K16N
Turning to B2, the binding result in assay [2] and in assay [3] was “binds” throughout.
